Source: PMC5761661 (Biochemistry, 2017)
Like-named read-outs stand apart in the source and are kept apart here.

Key:
[1] = molecular target: IpaD (invasion plasmid antigen D) (Shigella flexneri, UniProt P18013); assay: fluorescence polarization, single site saturation fit; assay type: binding; settings: read-out: Kd (μM) ± SD ^a; labelled compound; 25 nM FITC-DOC, 0-30 μM IpaD, PBS, 23 °C, 30 min
[2] = molecular target: IpaB^28–226-Alexa568 (Shigella flexneri); assay: fluorescence polarisation
[3] = molecular target: IpaB^28–226-Alexa568 (Shigella flexneri); assay: fluorescence polarisation; remark: listed apart in the source

Substance: FITC-deoxycholate
- Kd [1]: 9.3 ± 1.8 µM

Substance: IpaD D144A/N146A/Y149A triple mutant (from UniProt P18013 1-332) (natural protein)
- Kd [2]: 2200 nM
- Kd [3]: 7400 nM

Substance: IpaD Y149A (from UniProt P18013 1-332) (natural protein)
- Kd [2]: 500 nM

Substance: Wild-type IpaD (invasion plasmid antigen D) (from UniProt P18013 1-332) (natural protein)
- Kd [2]: 2000 nM
